Measured values taken from paper PMC3526283, “DNA-binding determinants promoting NHEJ by human Polµ”.

Legend:
[1] = target: T1, DNA polymerase mu (Polµ) (Homo sapiens, UniProt Q9NP87 1-494); assay: DNase I footprinting; 100 µM dTTP, 2.5 mM MgCl2; protects positions 36-52; EMSA: 50 mM Tris-HCl pH 7.5, 0.1 mg/ml BSA, 1 mM DTT, 4% glycerol, 5 nM DNA, 10 min at 30°C; footprinting: same buffer, 30 nM DNA, 37°C (2.5 mM MgCl2 and 100 µM dNTP where stated); details: protein: recombinant; tags: pRSETA-hPolµ construct; label: 32P at 5' end of FP-T; 1-nt gap, three strands; template FP-T, primer FP-P, downstream FP-D; otherwise blunt
[2] = target: T2, DNA polymerase beta (Polβ) (Homo sapiens, UniProt P06746 1-335); assay: DNase I footprinting; 100 µM dTTP, 2.5 mM MgCl2; protects positions 36-45; EMSA: 50 mM Tris-HCl pH 7.5, 0.1 mg/ml BSA, 1 mM DTT, 4% glycerol, 5 nM DNA, 10 min at 30°C; footprinting: same buffer, 30 nM DNA, 37°C (2.5 mM MgCl2 and 100 µM)
[3] = target: Polµ R387A (Homo sapiens, UniProt Q9NP87 1-494, R387A); assay: DNase I footprinting; footprint expands to primer side with dTTP; downstream extension only partly recovered with dTTP; EMSA: 50 mM Tris-HCl pH 7.5, 0.1 mg/ml BSA, 1 mM DTT, 4% glycerol, 5 nM DNA, 10 min at 30°C; footprinting: same buffer, 30 nM DNA, 37°C (2.5 mM MgCl2 and 100 µM dNTP where stated); details: protein: recombinant, label: 32P at 5' end of FP-T, 1-nt gap, three strands, template FP-T, downstream FP-D, otherwise blunt
[4] = target: T3, Polµ-ΔBRCT (Homo sapiens, UniProt Q9NP87 138-494); assay: DNase I footprinting; protects 10 nt, no downstream extension; EMSA: 50 mM Tris-HCl pH 7.5, 0.1 mg/ml BSA, 1 mM DTT, 4% glycerol, 5 nM DNA, 10 min at 30°C; footprinting: same buffer, 30 nM DNA, 37°C (2.5 mM MgCl2 and 100 µM dNTP where stated); details: protein: recombinant; tags: pRSETA construct; label: 32P at 5' end of FP-T; 1-nt gap, three strands; template FP-T, primer FP-P, downstream FP-D; otherwise blunt
[5] = target: Polµ H329G (Homo sapiens, UniProt Q9NP87 1-494, H329G); assay: DNase I footprinting; with/without dATP or dTTP; no expansion with nucleotide, no downstream BRCT extension; EMSA: 50 mM Tris-HCl pH 7.5, 0.1 mg/ml BSA, 1 mM DTT, 4% glycerol, 5 nM DNA, 10 min at 30°C; footprinting: same buffer, 30 nM DNA, 37°C (2.5 mM MgCl2 and 100 µM dNTP where stated); details: protein: recombinant; label: 32P at 5' end of FP-T; 1-nt gap, three strands; template FP-T, primer FP-P, downstream FP-D; otherwise blunt
[6] = target: T3, Polµ-ΔBRCT; assay: EMSA; 5'-P assignment inferred: binding undetectable without it; EMSA: 50 mM Tris-HCl pH 7.5, 0.1 mg/ml BSA, 1 mM DTT, 4% glycerol, 5 nM DNA, 10 min at 30°C; footprinting: same buffer, 30 nM DNA, 37°C (2.5 mM MgCl2 and 100 µM dNTP where stated); details: protein: recombinant; tags: pRSETA construct; label: 32P; 3' overhang 2 nt (text says 3 nt), other end blunt
[7] = target: T1, DNA polymerase mu (Polµ); assay: EMSA; EMSA: 50 mM Tris-HCl pH 7.5, 0.1 mg/ml BSA, 1 mM DTT, 4% glycerol, 5 nM DNA, 10 min at 30°C; footprinting: same buffer, 30 nM DNA, 37°C (2.5 mM MgCl2 and 100 µM dNTP where stated); details: protein: recombinant, tags: pRSETA-hPolµ construct
[8] = target: T2, DNA polymerase beta (Polβ); assay: EMSA; 100 nM protein; EMSA: 50 mM Tris-HCl pH 7.5, 0.1 mg/ml BSA, 1 mM DTT, 4% glycerol, 5 nM DNA, 10 min at 30°C; footprinting: same buffer, 30 nM DNA, 37°C (2.5 mM MgCl2 and 100 µM)
[9] = target: T3, Polµ-ΔBRCT; assay: EMSA; 300 and 600 nM protein; EMSA: 50 mM Tris-HCl pH 7.5, 0.1 mg/ml BSA, 1 mM DTT, 4% glycerol, 5 nM DNA, 10 min at 30°C; footprinting: same buffer, 30 nM DNA, 37°C (2.5 mM MgCl2 and 100 µM dNTP where stated); details: protein: recombinant; tags: pRSETA construct; label: 32P; 3' overhang 2 nt (text says 3 nt), other end blunt
[10] = label: 32P, 3' overhang 2 nt (text says 3 nt), other end blunt
[11] = label: 32P at 5' end of Sp1C, 1-nt gap, three strands, otherwise blunt

T3 sequence (Q9NP87 138-494, stated change not applied): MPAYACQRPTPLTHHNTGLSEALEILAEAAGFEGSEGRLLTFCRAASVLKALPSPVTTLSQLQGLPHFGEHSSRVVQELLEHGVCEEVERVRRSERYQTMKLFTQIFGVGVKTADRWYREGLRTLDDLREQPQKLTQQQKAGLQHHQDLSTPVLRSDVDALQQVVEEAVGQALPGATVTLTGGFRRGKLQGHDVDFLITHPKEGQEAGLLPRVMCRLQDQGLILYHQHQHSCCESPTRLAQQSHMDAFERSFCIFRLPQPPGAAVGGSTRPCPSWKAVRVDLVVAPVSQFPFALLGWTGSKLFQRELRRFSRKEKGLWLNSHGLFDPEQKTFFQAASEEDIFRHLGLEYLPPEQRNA
T1 sequence (Q9NP87 whole entry): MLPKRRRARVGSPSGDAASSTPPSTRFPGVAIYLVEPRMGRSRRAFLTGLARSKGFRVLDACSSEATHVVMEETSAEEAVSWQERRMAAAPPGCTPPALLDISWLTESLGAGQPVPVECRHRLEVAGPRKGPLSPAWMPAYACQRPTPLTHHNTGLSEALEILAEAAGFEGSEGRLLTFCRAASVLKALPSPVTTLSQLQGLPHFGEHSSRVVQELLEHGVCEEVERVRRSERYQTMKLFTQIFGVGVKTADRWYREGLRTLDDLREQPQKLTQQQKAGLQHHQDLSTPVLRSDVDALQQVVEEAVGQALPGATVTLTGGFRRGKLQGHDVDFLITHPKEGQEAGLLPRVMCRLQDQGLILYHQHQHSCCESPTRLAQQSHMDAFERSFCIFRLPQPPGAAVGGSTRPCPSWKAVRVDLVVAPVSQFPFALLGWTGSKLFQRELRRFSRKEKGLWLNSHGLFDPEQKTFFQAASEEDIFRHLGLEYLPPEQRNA
Polµ R387A, sequence (Q9NP87 whole entry R387A): as the sequence (Q9NP87 whole entry) above, with R387A counted along it
Polµ H329G, sequence (Q9NP87 whole entry H329G): as the sequence (Q9NP87 whole entry) above, with H329G counted along it

B1: footprint 1-nt gap FP-T/FP-P/FP-D, 5'-P (dsDNA)
DNA 1: GGCAGCTTGGATCTTGTCGAAAAACGTCAACATTCGCCTAGGCTTCGGCAATACTGAGGTCTTGTCGAAAAACGTCAACATTGCGTGGCC
DNA 2: GGCCACGCAATGTTGACGTTTTTCGACAAGACCTCAGTAT
DNA 3: GCCGAAGCCTAGGCGAATGTTGACGTTTTTCGACAAGATCCAAGCTGCC
modifications: 5'-phosphate on FP-D (S10)
[1]
  binding result: binds
[2]
  binding result: binds
[3]
  binding result: binds
[4]
  binding result: binds
[5]
  binding result: binds

B2: 3'-protruding end GT/NHEJ-D, 5'-P (dsDNA)
DNA 1: CCCTCCCTCCCGT
DNA 2: GGGAGGGAGGG
modifications: 5'-phosphate on NHEJ-D (S15)
[6]
  Kd: 2000 nM
[7]; [10]
  Kd: 165 nM

B3: 1-nt gap Sp1C/T28/D12, 5'-P (dsDNA)
DNA 1: AGAAGTGTATCTCGTACTCACTGTGATC
DNA 2: GATCACAGTGAGTAC
DNA 3: AGATACACTTCT
modifications: 5'-phosphate on D12 (S3)
[7]; [11]
  Kd: 100 nM
[8]
  binding result: binds

B4: 1-nt gap Sp1C/T28/D12, 5'-OH (dsDNA)
DNA 1: AGAAGTGTATCTCGTACTCACTGTGATC
DNA 2: GATCACAGTGAGTAC
DNA 3: AGATACACTTCT
[7]; [11]
  Kd: 500 nM

B5: 3'-protruding end GT/NHEJ-D, 5'-OH (dsDNA)
DNA 1: CCCTCCCTCCCGT
DNA 2: GGGAGGGAGGG
[9]
  binding result: no binding
[7]; [10]
  Kd: 400 nM
